# Source: the nanobody polyreactivity screen of Harvey et al. (2022)
# Test: yeast display, Sf9 membrane polyspecificity reagent, FACS + sequencing; frameworks hold sequencing errors
# Procedure, shortened: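 A nanobody's polyreactivity label depends on the gate it was sorted from. Yeast display cells were stained with 10% biotinylated, detergent-solubilized Sf9 membrane reagent for 1 hour at 4 °C, enriched on streptavidin microbeads and sorted by FACS. The low and high (top ~1%) gates were set on anti-HA fluorescence for expression and streptavidin fluorescence for reagent binding.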
row,Sequence,polyreactivity (PSR sort gate)
1,QVQLVESGGGLVQAGGSLRLSCAASGSTFVRNAMGWYRQEPGKERELVANISSGGGTKYADSVKGRFTISRDNAQNTVYLQMNSLKPEDTAVYYCAKRTIYSGRFYYWGQGTQVTVSS,high polyreactivity
2,QVQLVESGGGLVQAGGSLRLSCAASGFIFRRNAMGWYRQAPGKERELVAAISTRGGITYYADSVKGRFTISRDNAKNTVYLQMNSLKPDDTAVYYCAVVFVWGWPGYYWGQGTQVTVSS,high polyreactivity
3,QVQLVESGGGLVQAGGSLRLSCAASGSTFYRYAMGWYRQAPGKERELVAAISSSGGSTYYADSVKGRFTISRDNAKNTVYLQMNSLKPEDTAVYYCNADVHSQYDYWGQGTQVTVSS,low polyreactivity
4,QVQLVESGGGLVQAGGSLRLSCAASGSTFQYYDMGWYRQAPGKERELVASITGSGDSTYYADSVKGRFTISRDNAKNTVYLQMNSLKPEDSAVYYCAAQNTWSGDYDYWGQGTQVTVSS,low polyreactivity
5,QVQLVESGGGLVQAGGSLRLSCAASGRTFGNYVMGWYRQAPGKERELVAAIRSGTNTYYADSVKGRFTISRDNAKNTVYLQMNSLKPEDTAVYYCAAARYTKFDYWGQGTQVTVSS,high polyreactivity
6,KVQLGESGGGLVQAGGSLRLSCAASGFIFGYNGMGWYRQAPGKERELVAGITYSDGSTYYADSVKGRFTISRDNAKNTVYLQMNSLKPEDTAVYYCAVDVIYYWAEDYDYWGQGTQVTVSS,low polyreactivity
7,QVQLVESGGGLVQAGGSLRLSCAASGRTFEQNAMGWYRQAPGKEREFVAAITASSGRTSYADSVKGRFTISRDNAKNTVYLQMNSLKPEDTAVYDCAADLADRERRHNYWGQGTQVTVSS,low polyreactivity
8,HVQLVESGGGLVQAGGSLRLSCAASGRTFYRYAKGWYRQAPGKEREFVAAISRSGGSTYYAVSVKGRFTISRDNAKNTVYLQMNSLKPEDTAVFYSNKYYWYPYGRAHDYGYWGQGTQVTVSS,high polyreactivity
9,QVQLVESGGGLVQAGGSLRLSCAASGIFAYYAMGWYRQAPGKERELVAAISSSGGSTYYADSVKGRFTISRDNAKNTFYLQMNSLKPEDTAVYYCNVRNYYNDYYYWGQGTQVTVSS,high polyreactivity
10,QVQLVESGGGLVQAGGSLRLSCAASGSIFSAYAMGWYRQAPGKERELVAGISKRGGSTYYADSVKGRFTISRDNAKNTVYLQMNSLKPEDTAVYYCNAARYTVVTKLFDYWGQGTQVTVSS,high polyreactivity
11,QVQLVESGGGLVQAGGSLRLSCADSGFTFFSNAMGWYRQAPGKERELVAAITSSGRSTYADSVKGRYTISRDKAKNTVYLQMNSLKPEDSAVYYCAARRTGYLYRYGYWGQGTQVTVSS,low polyreactivity
12,QVQLVESGGGLVQAGGSLRLSCAASGSPFTRYTMGWYRHAPGKERELVASITRTGSTNYADSVKGRFTISRDNAKNTLYFQMNSLKPEDTAVYYCAAGRYYSYRFSFGYWGQGTQVTVSS,high polyreactivity
13,QVQIVESGGGLVQAGGSLRLSCAASGRSFYKYAMGWYRQAPGKERELVAAISKSGGRTYYADSVKGRFTISRDNAKNTVYLQMNSLKPEDTAVYYCAAEPFIPDQSRYYYWGQGTQVTVSS,high polyreactivity
14,QVQLVESGGGLVQAGGSLRLSCAASGRTFAWYAMGWYRQAPGKERELVAAISWSSDTTYYADSVKGRFTITRDNAKNTVYLQMNSLKPEETAVYYCAAVFQGYTRKYYYWGQGTQVTVSS,high polyreactivity
15,QVQLVESGGGLVQAGGSLRLSCAASGSTFVKNVMGWYRQAPGKERELVAGITRGGSTYYADSVKGRFTISRDNAKNTVYLQMNSLKPEDTAVYYCAAARWSQYRTWMNYWGQGTQVTVSS,high polyreactivity
16,QVQLVESGGCLVQAGGSLRLSCAATGFIFYPDAKGWYRQAPGTEMELVAVITSGGRTYYADSVKGRFTITRDNAKNTVYLQMNSLKPEDTAVYYCAALYLGLWPTDIFDYWGQGTQVTVSS,low polyreactivity
